Experimental data as given in PMC1133794.

Target: MyoD (UniProt P10085 1-318)
Experiment: EMSA

MyoD, sequence (P10085 whole entry): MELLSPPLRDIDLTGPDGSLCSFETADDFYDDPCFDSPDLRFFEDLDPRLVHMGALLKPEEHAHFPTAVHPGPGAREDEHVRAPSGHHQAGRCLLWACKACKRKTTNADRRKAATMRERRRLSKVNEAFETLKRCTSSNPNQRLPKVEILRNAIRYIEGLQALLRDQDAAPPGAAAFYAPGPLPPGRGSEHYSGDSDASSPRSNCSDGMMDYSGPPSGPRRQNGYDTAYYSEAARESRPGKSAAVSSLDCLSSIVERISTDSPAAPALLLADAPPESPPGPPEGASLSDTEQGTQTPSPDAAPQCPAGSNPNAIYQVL

B1: G'2 bimolecular tetraplex integrin 26/integrin 29 (structured_DNA)
DNA 1: CATGGGGGCGGGAAGGGGCGGGGTCT
DNA 2: AAAGGTGGGGCGGCAGGGCGCAAGGCAAT
binding result: binds
